Assay results as given in the DeepSol protein solubility set.

Test: soluble on expression in E. coli; label from the status in PepcDB or PDB records
With “MALRDSFNKIISYFDTDEVSEVEEPAVASVKRQQDAAQPASQQQKAQSHQYHQSASRPSQQQVQSGQNRRSGEENIHSLPTRRQSHNQQPAQEKTTIALKLPRKYEDAEEIVDLLIRNECVLIDFQYMLEAQARRCLDFIDGASKVLAGNLQKVGASMYLLTPINVIVDAEEMTLAANGQDVSFNYDMKRRLEHHHHHH” the “soluble on expression in E. coli” value was “not soluble”. With “GPGSMFFYQRRLASGLPVRFLSLRAWRSSPENFRKTSAFLKALKAKTPAAGVSAEGFGARPVVVITGGERGIGKEVVHQLLREGVDVILCCPFEAEALRTIARLKARVSNSRVHFVKLDLNDEESVRECAAEVLGMTPRIDVLINNSGLVSPLSHKLNKRGYEVVLSINFLGHVLFTELLLERVKASGPSRIVNVASLMHLDACVEGPCKTALDVMAANCDPTSPHHTRNYSLSKLLLVCYTRDLARHLRGTDTAVATLHPGVVITDIYAFAVIFMRVFFRTVFKFPGEGAEVVLYCALADNIRSGSFYADCAEYNSLLSPLAVDDAHNERLRRVLLRYFALDGSKPTGKSLADVVQSTP” the “soluble on expression in E. coli” value was “not soluble”. For “MVLAVKVQIKEGEKVRRKLIELGALNREYKIKREEGFLLIPVKFPVEGFEVVEVELERVETRPNSYKDVVNIPRELRKFLPSSFDIIGNIAIIEIPSELQNYSNEIGGAIIRVHKSVKAVYMKGGSVEGEYRVRNLIHIAGEKITETIHRENGVRLKLDITKVYFSPRLATERMRVFKMAREGEIVFDMFAGVGPFSILLAKKARMVFACDINPWAIKYLEENIKLNKVKNIIPILSDVTKVCVKADRIIMNLPKYASRFLEHAMRCVNNGGIIHYYGFGPEKDPYGWHVKRINEVAGRLGVKVEILGKRIIRNYAPRQYNIAIDFRVSF”, the “soluble on expression in E. coli” value was “soluble”. For “MGSDKIHHHHHHMKTDTEWLLCDFHVHTNMSDGHLPLGEVVDLFGKHGVDVVSITDHIVDRRTLEQRKRNGEPLGAITEDKFQDYLKRLWREQKRAWEEYGMILIPGVEITNNTDLYHIVAVDVKEYVDPSLPVEEIVEKLKEQNALVIAAHPDRKKQDEEHLSWYLWANMERFKDTFDAWEIANRDDLFNSVGVKKYRYVANSDFHELWHVYSWKTLVKSEKNIEAIKEAIRKNTDVAIYLMRKNRLSSLSDVI”, the “soluble on expression in E. coli” value was “soluble”. With “MGSDKIHHHHHHVALLQDELKIRKIHELLHMKLALPPYQRPYSWSVKSANTLFQDTYNAYHEGLQEYRVGSVILHKENGKYNIVDGQQRLTTISILLYCLGEKDLGLLQEKYNQLSNDVIVTNYEILSKRISELPKDEQNKYKNYLFERCSVVQIVTDSEQEAFQFFDSQNSRGKELTPHDLLKSYHLREMNDEEENQKIRIINQWENVNQDDLNDLFKIYLYPLTQWYKGKSGLGYSSSKIDVFKGIKTTNVFNYAIYHKASNLFVEQFNANGSNELLASRALNQFQLTQPLMAGKRFFYYTLHYRNLLEQVQRLVSKVHTEEQVPSRRTGDLYIKQLYECALLFFADRFGIENLSKAVMQQLYTWSYSLRLVMEAVYLQTINKYVRGEHERVNYGLGMFSEISEMKNGEELKLISLEQPKIENKNKEKYRDVYDLLCEWNRW” the “soluble on expression in E. coli” value was “not soluble”. With “MAHHHHHHMPTSSGVDQAKLREVIRVLKSVGHVGMAESLEVEWGMKPNTAAHAKNAKKGRKSLPHKSRESSKARGNSFPSLSSIAVAPSPLQVTSQSRFVVTCIGDEEDLWSPDEDPADAKRCIAPLFDYGAGLLRDHYAEYAAHPVSFVSVHPYEKQQPPSNLPWRHFELKVFYEAGKTGSEEKKEFELVKGDLIGGRYHVDAPIDAATFSRTVRCYDEQTGQPVCLKIIRNSKTFLDQGLDELRALTCVNDAGDADACCVVRLLDYFYFREHLVLVTELLFDNLYEYARKLDIVERCAYFTLARLQRIVRQVLTALKLIHSVNLIHCDIKPENIAFKSVSDCDVKVLDLGSSCYMTDTLSSYVQSRSYRAPEVILGCKYGPAVDIWSLGATAAELATGTVLFNVESVPTMLASIASVCGPIPAEMLQEGRNTSLYVTQHGAFYDYEDEQLVFHFPSEPPDAAVLFGFDDHDYVDFVRLCLTLDAALRPSAAQLLDHPFLTKTYTD” the “soluble on expression in E. coli” value was “not soluble”. With “MGSDKIHHHHHHMRGMMLGMLAETHIHSGAGRSEGFVDLPVAREAVTSYPVIAGSSLKGALRDAARERGMDESIFGDQDRAGDVLVSDARLLLLPVRSLTGSYRWVTCPHILERLSRDMRLCGISDGFEGASVERGKACCTDDLNQIFLEEREFQRSNGIDGALIDALKKMVPHKQTASRLERQLVIISDDDFGWFASYGLPVIARNKLDDNKKSKNLWYEEALAPDTLMYAMVFERKDGALGKVQSMFETKPYLQLGGNETVGMGWFAVKILEQGEGR” the “soluble on expression in E. coli” value was “not soluble”. For “MEEKLVTLAILTYTKAQILKNVLENEGIETYIHNVNQIQPVVSSGVRLRIKESDLPRALKITESSAWLAESIVGEKTPKVEHRTKKVLIPVDFSNYSMKACEFGFNFAKSFDAEVILLHVYFTPIYASSLPYGDVFNYQISDEETVKNVLHKVHDDLNTLSEKIKQKVASGEFPDVKYTCVLREGIPEEEILRYNKEHRPRIIIMGTRGKNQKDIDLIGSVTAEIIERSHTTVLAIPENTPFNRFNEVKRIAFMTNFDQRDLIAFDSFINGLSPFHFSVSLIHLSDVKDTWNEIKLAGIKDYFQKQYPDLEIHYDVVMSNDFLNSLDNYIKTNQIDIITLTSYKRNIFSRLFNPGIARKMIFHSDTPLLVING”, the “soluble on expression in E. coli” value was “not soluble”. In the case of “MSLIHIAIAEDDFRVAQIHERLIKQLDGFKIIGKAANAKETLALLKEHKADLLLLDIYMPDELGTALIPDIRSRFPEVDIMIITAATETRHLQEALRAGIAHYLIKPVTADKFRQVLLQYKEKRKLLMSQPKGIITITTDPNSSSVDKLAAALEHHHHHH”, the “soluble on expression in E. coli” value was “soluble”. With “MSLKGVSYTSEQKTRIVLEMLKEEETLAQIASRYQVTSQTLNSWKRQFLANASLAFEPAKALQEYKDQIQSKEQEIEELQKQLGKSVAEKEWLAKKLEGLDLSNKKALVESKPETISIARQCELLGISRSAYYYKPISLSRANLQIMHAIGEIATDNAEYGYRFIHQQLLEDGYRIGKERVLKYMRVMNLRALYPKKRKHTSIHNLEYKRYPYLLSQYHNSKKQVVVDRPGEVWSGDITYIRMNGGFMYLCAIIDWHSKAILAYKISNTMDASLAVDTLKEALQTHPAPRIFNSDQGSQYTSEEHTRLLEEHQIAISMNGKGRSIDNIAIERFFRTLKHSSIYINDYRTIKELKEGIKNYIHKYNFKRFHSSIEYRKPMNVYLEAQTVAEGHHHHHH” the “soluble on expression in E. coli” value was “not soluble”. In the case of “PKLPTISQFNVTPFLAFISPDYKTHIDPNEVESVFEVPANHILNPNKLYSSKFELKRSSHRVFAIPYRQHFIWGMTAQIIESMQKHIISG”, the “soluble on expression in E. coli” value was “not soluble”. With “MNPKSSLADGAHIGNYQIVKTLGEGSFGKVKLAYHTTTGQKVALKIINKKVLAKSDMQGRIEREISYLRLLRHPHIIKLYDVIKSKDEIIMVIEYAGNELFDYIVQRDKMSEQEARRFFQQIISAVEYCHRHKIVHRDLKPENLLLDEHLNVKIADFGLSNIMTDGNFLKTSCGSPNYAAPEVISGKLYAGPEVDVWSCGVILYVMLCRRLPFDDESIPVLFKNISNGVYTLPKFLSPGAAGLIKRMLIVNPLNRISIHEIMQDDWFKVDLPEYLLEHHHHHH” the “soluble on expression in E. coli” value was “soluble”. In the case of “MSSDKNGDILRPLSDSEVDELLDLYKVKFGIRNFHYLLLYNQRKWDRQLSEAQIPRNDLNHISLRKQFYTHRRGNFRTWGTYVSLHRDIVQSVSFFSWQPDGAAELWECLEQTQLIEWTQGALLTNVDLGFCNRVKELAVSRGVTAIQPRQCFGMVLSHEDAFCAKVPDLPSEFEIRRLRAEDAAMVHDSWPNKGEGSLTYLQALVRFNKSLGICRSDTGELIAWIFQNDFSGLGMLQVLPKAERRGLGGLLAAAMSREIARGEEITLTAWIVATNWRSEALLKRIGYQKDLVNEWIKLVPNSSLEHHHHHH”, the “soluble on expression in E. coli” value was “soluble”. For “MGSDKIHHHHHHMKSVCLKITSLISLASRITTGLSLMSVMLASPLAVAQMGKHDALLLHAARVFDGHRMRTNTSVQVVNGKVTQIGPRGSFAPDNAKVIDLGDATILPGFIELHAHLSFQHVPADTVLKHGITTIRDVGGPVHKPYGGNGTLRMLTSGPIITAPGGYPIPLTGEKNIATPVSTEKEARETVRNLIDAGAVVIKIALEPGGEPGAPWSCGHAHVHHHNHAAAGNHAHHAQPNHEPPNHEAANDAHSSHPHPNTGLGTAWPLLAERVVKAIVDEAHVNKRRVTAHIAEVKGAEIAINAGIDEWAHVPCDIIPEPLLKKAVSQGVRIVTTLDTLSKCPGVAHNTRVWREQGGELLYGAEIAHPDVPRGIDAQELMYMMQMGNMETLEVLRAATSKAGEHLGLPLLGTLLPGAPADVIAIKGDPTHNLKNLEYPDLVISGGEIVLNNFPAAF”, the “soluble on expression in E. coli” value was “not soluble”. With “MGVVHDVWRATKELLEATALPWPSEEREERLAAVDRLLREREELLRKLRPPYSEEEQELGREIIVWNQEIEARLLRVCEEIRRDLRMTGAKRQANARYVHPYEQPLSFDGMFYDKRR” the “soluble on expression in E. coli” value was “not soluble”. In the case of “MGSDKIHHHHHHMKTYLVGGSVRDEILGLPVTDHDYVVVGVSPEEMVHLGFRPVGKDFPVFLHPQSQEQYALARTERKVSRGYKGFEVYASPEVTLQEDLARRDLTINAIAKDEYGNIIDPFGGIADLEAGVLRHIGPAFTEDPVRVLRTARFAARFGFHIAPETLALMNEMVHNGEVDALVSERVWQEIARGLMERHPSRMFYALRDCGALTRIMPEVDALFGVPQPPQHHPEIDTGVHVMMVIDYAASRNYSLQVRFAALTHDLGKGTTPPEEWPRHIGHEARSVRLVQGLCERINPPNEMRNLALLVARYHGDVHRAAELRPVTIANLLQGVDAYRKPERFEEFLQACACDFHGRPGYATRPYPQADRLREAFQAARSVDAGAIAKEMARNVSDPSRLPVAINTRVSETRIAEIRNRLGSLA”, the “soluble on expression in E. coli” value was “not soluble”. In the case of “GAHMSVIKPEMKIKLCMRGTVNGHNFVIEGEGKGNPYEGTQILDLNVTEGAPLPFAYDILTTVFQYGNRAFTKYPADIQDYFKQTFPEGYHWERSMTYEDQGICTATSNISMRGDCFFYDIRFDGTNFPPNGPVMQKKTLKWEPSTEKMYVEDGVLKGDVNMRLLLEGGGHYRCDFKTTYKAKKEVRLPDAHKIDHRIEILKHDKDYNKVKLYENAVARYSMLPSQAK”, the “soluble on expression in E. coli” value was “soluble”. For “MSWIERIKSNITPTRKASIPEGVWTKCDSCGQVLYRAELERNLEVCPKCDHHMRMTARNRLHSLLDEGSLVELGSELEPKDVLKFRDSKKYKDRLASAQKETGEKDALVVMKGTLYGMPVVAAAFEFAFMGGSMGSVVGARFVRAVEQALEDNCPLICFSASGGARMQEALMSLMQMAKTSAALAKMQERGLPYISVLTDPTMGGVSASFAMLGDLNIAEPKALIGFAGPRVIEQTVREKLPPGFQRSEFLIEKGAIDMIVRRPEMRLKLASILAKLMNLPAPNPEAPREGVVVPPVPDQEPEALEHHHHHH”, the “soluble on expression in E. coli” value was “not soluble”. For “MVQEIEQWLRRHQVFTEPAYLGETAILLGQQFILSPYLVIYRIEAKEMIICEFRRLTPGQPRPQQLFHLLGLLRGIFVHHPQLTCLKMLIITDVLDEKKAMLRRKLLRILTVMGATFTQLDGDNWTVLSAEHLIQRRF”, the “soluble on expression in E. coli” value was “not soluble”. For “AVHITLDPDTANPWLILSEDRRQVRLGDTQQSIPGNEERFDSYPMVLGAQHFHSGKHYWEVDVTGKEAWDLGVCRDSVRRKGHFLLSSKSGFWTIWLWNKQKYEAGTYPQTPLHLQVPPCQVGIFLDYEAGMVSFYNITDHGSLIYSFSECAFTGPLRPFFSPGFNDGGKNTAPLTLCPLNIGSQG”, the “soluble on expression in E. coli” value was “not soluble”.
